Experimental data reported in patent US20110307974A1.

T1: APC10 (AT2G18290) fused at its N-terminus with the traditional TAP tag or with the GS tag (Arabidopsis thaliana) (UniProt Q9ZPW2)
T1 sequence: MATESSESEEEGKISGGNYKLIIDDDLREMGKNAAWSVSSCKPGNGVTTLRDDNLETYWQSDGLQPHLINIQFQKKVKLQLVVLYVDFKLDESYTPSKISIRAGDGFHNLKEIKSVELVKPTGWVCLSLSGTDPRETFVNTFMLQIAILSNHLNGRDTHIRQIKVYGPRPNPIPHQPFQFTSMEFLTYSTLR


Target: T1, APC10 (AT2G18290) fused at its N-terminus with the traditional TAP tag or with the GS tag (Arabidopsis thaliana)
Experiment: TAP purification with tagged APC10 as bait from Arabidopsis cell suspension culture, MALDI-TOF/TOF MS identification

Molecule	Found/6 exp (of 6 experiments)
APC1 (AT5G05560) (from UniProt Q9FFF9 1-1678)	6
APC2 (AT2G04660) (from UniProt Q8H1U5 1-865)	3
APC4 (AT4G21530) (from UniProt O65418 1-777)	6
APC8 (AT3G48150) (from UniProt Q9STS3 1-579)	6
UVI4 (AT2G42260) (from UniProt O48533 1-259)	3
eukaryotic translation initiation factor 3 subunit 8 (AT3G56150) (from UniProt O49160 1-900)	1
expressed protein (AT4G25550) (from UniProt Q8GXS3 1-200)	2
SAMBA (AT1G32310) (protein) MNGASPAHSLVSTTAVAGGGGSSGAAAGLDDFHFPPDIPSMQERKDEAMRVLKADLMTELDKEVKSLEEDSWMFEGPRSRIHLISRRGNFLKKGGEVKLW	4

The next lines start with the values.

Found/6 exp (of 6 experiments)	Molecule
6	APC5 (AT1G06590) (from UniProt Q8H1U4 1-916)
6	APC7 (AT2G39090) (from UniProt Q8VY89 1-558)
1	CCS52B (AT5G13840) (from UniProt Q8LPL5 1-481)
6	CDC16 (AT1G78770) (from UniProt B3DNN5 1-543)
4	CDC27a (AT3G16320) (from UniProt Q06AN9 1-717)
6	CDC27b (AT2G20000) (from UniProt Q8LGU6 1-744)
1	CDKA; 1 (AT3G48750) (from UniProt P24100 1-294) (enzyme)
2	RNase L inhibitor protein, putative (AT4G19210) (from UniProt Q8LPJ4 1-605)
2	UVI4-like (AT3G57860) (from UniProt Q9M2R1 1-243)
1	phosphoprotein-related (ELF8) (AT2G06210) (from UniProt B5X0I6 2-1091)
